Reference: the supplement of paper PMC10065799, “High-throughput profiling of sequence recognition by tyrosine kinases and SH2 domains using bacterial peptide display” (eLife, 2023)

Assays:
[1] = biological target: EPHB1 (UniProt P54762); experiment: phosphorylation enrichment, bacterial display (enrichment ratio); higher = better substrate or ligand; peptides without Tyr show the background
[2] = biological target: Hck (UniProt P08631); experiment: as above
[3] = biological target: Fes (UniProt P07332); experiment: as above
[4] = biological target: Fyn (UniProt P06241); experiment: as above
[5] = biological target: FGFR3 (UniProt P22607); experiment: as above
[6] = biological target: MERTK (UniProt Q12866); experiment: as above
[7] = test system: c-Src; experiment: as above
[8] = biological target: Jak2 (UniProt O60674); experiment: as above
[9] = test system: c-Abl (mouse); experiment: as above
[10] = biological target: FGFR1 (UniProt P11362); experiment: as above
[11] = biological target: EPHB2 (UniProt P29323); experiment: as above
[12] = test system: AncSZ; experiment: as above
[13] = test system: Fer (mouse); experiment: as above
[14] = biological target: SHP2-C SH2; experiment: SH2 binding enrichment of the phosphorylated peptide, bacterial display (enrichment ratio); higher = better substrate or ligand; peptides without Tyr show the background
[15] = biological target: Grb2 SH2 (UniProt P62993); experiment: as above
[16] = biological target: c-Src SH2; experiment: as above
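Wherever SH2 binding enrichment of the phosphorylated peptide, bacterial display is given: peptide library displayed on the E. coli surface as eCPX fusions, selected cells deep-sequenced, score is each peptide's frequency after selection divided by its frequency in the input.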
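Wherever phosphorylation enrichment, bacterial display is given: 11-residue human phosphosite peptides and single-mutation variants displayed on the E. coli surface, counted by deep sequencing, each peptide's frequency after selection divided by its frequency in the unselected input library; frequency after pTyr selection over input frequency; kinase dosed for 20-30% of maximal phosphorylation in three min.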

Chain of MERTK (Q12866 whole entry, looked up): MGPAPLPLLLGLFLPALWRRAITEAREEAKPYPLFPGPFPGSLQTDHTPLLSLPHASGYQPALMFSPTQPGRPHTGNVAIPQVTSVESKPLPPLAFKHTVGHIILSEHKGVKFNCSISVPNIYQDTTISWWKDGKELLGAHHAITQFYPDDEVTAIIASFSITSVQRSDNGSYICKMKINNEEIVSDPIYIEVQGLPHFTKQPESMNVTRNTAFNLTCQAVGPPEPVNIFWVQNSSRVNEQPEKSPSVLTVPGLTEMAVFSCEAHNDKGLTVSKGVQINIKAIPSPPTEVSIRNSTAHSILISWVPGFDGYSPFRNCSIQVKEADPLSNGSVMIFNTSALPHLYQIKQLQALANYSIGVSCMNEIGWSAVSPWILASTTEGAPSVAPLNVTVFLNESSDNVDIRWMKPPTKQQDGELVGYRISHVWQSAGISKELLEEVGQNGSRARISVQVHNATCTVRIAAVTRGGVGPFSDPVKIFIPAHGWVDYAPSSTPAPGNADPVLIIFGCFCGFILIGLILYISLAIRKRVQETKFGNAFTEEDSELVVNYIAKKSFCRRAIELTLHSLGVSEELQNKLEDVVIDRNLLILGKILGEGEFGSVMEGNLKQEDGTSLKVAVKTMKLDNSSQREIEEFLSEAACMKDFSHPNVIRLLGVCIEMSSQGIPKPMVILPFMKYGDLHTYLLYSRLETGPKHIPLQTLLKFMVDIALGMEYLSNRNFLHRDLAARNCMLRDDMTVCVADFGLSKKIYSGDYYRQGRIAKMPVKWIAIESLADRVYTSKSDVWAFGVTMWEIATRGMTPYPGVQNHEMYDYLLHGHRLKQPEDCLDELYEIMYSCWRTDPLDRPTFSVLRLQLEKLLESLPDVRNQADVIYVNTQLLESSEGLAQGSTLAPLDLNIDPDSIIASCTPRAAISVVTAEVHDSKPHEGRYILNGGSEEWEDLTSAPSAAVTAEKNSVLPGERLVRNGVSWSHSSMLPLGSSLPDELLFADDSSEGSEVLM
Chain of FGFR3 (P22607 whole entry, looked up): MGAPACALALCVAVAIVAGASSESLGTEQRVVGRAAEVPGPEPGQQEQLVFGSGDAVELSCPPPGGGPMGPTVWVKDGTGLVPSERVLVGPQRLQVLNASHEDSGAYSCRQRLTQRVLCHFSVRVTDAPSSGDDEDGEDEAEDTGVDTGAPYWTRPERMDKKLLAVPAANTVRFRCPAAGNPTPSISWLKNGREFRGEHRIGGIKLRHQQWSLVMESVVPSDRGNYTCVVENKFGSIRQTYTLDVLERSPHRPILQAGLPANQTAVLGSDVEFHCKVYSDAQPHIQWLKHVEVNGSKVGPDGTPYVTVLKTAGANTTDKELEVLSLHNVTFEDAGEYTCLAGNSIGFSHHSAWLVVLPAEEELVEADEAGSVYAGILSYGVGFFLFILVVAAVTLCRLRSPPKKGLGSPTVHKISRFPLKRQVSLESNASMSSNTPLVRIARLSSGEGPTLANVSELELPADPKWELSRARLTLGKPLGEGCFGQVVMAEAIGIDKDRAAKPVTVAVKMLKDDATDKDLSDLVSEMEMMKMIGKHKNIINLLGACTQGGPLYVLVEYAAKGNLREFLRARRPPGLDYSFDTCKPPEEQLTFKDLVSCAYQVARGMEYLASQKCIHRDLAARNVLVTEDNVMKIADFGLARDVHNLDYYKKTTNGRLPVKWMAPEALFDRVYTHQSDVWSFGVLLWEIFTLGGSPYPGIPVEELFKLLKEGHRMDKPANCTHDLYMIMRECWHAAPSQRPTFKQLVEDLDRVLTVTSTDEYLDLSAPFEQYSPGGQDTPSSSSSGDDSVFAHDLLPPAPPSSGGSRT
Chain of EPHB2 (P29323 whole entry, looked up): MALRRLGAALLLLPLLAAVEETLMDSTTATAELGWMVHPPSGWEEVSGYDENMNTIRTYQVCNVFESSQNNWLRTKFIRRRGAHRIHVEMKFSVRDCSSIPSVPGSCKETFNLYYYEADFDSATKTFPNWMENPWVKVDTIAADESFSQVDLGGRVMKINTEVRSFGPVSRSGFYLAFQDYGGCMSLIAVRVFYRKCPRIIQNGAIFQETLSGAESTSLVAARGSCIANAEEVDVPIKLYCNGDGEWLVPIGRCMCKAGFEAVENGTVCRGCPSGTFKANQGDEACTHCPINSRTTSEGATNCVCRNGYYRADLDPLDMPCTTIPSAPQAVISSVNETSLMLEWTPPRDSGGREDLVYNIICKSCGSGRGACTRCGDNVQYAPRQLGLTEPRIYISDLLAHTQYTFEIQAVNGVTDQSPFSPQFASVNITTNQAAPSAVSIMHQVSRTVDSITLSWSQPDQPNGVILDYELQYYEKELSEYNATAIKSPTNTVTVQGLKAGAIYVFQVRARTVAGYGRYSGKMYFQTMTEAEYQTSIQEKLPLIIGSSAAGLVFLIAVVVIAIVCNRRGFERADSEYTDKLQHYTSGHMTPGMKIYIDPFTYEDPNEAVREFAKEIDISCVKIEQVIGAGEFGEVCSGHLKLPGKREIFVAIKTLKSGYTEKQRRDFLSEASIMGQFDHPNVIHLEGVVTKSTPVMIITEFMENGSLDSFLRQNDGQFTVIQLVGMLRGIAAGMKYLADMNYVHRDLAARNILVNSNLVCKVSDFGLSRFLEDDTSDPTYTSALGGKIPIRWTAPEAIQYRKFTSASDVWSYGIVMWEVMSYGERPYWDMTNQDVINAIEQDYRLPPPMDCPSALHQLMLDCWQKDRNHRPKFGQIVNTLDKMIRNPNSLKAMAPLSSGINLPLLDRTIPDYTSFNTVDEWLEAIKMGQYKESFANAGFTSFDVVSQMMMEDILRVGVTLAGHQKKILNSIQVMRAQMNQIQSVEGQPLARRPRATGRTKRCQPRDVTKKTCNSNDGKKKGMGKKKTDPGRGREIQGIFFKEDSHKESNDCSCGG
Chain of Hck (P08631 whole entry, looked up): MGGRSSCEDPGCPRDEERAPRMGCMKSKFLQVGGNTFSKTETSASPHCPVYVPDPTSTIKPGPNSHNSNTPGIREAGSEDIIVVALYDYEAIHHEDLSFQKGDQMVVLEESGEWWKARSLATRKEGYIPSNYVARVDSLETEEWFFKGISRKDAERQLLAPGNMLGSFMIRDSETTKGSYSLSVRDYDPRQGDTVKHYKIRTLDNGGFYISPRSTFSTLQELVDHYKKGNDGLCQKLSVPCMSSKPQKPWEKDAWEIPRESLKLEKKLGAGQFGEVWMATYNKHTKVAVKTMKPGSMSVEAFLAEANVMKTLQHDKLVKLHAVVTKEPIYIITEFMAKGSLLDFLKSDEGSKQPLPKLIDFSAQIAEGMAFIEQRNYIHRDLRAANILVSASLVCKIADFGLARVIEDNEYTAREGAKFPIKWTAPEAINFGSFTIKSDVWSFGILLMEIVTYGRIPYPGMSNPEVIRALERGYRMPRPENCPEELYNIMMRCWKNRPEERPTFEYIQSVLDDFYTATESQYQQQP
Chain of Grb2 SH2 (P62993 whole entry, looked up): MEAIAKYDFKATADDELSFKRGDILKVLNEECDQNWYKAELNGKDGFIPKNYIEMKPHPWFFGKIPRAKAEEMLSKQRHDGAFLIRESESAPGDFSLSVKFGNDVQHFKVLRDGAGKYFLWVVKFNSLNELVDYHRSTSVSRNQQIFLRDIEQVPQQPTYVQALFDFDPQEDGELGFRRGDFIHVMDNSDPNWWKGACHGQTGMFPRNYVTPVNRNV
Chain of Fes (P07332 whole entry, looked up): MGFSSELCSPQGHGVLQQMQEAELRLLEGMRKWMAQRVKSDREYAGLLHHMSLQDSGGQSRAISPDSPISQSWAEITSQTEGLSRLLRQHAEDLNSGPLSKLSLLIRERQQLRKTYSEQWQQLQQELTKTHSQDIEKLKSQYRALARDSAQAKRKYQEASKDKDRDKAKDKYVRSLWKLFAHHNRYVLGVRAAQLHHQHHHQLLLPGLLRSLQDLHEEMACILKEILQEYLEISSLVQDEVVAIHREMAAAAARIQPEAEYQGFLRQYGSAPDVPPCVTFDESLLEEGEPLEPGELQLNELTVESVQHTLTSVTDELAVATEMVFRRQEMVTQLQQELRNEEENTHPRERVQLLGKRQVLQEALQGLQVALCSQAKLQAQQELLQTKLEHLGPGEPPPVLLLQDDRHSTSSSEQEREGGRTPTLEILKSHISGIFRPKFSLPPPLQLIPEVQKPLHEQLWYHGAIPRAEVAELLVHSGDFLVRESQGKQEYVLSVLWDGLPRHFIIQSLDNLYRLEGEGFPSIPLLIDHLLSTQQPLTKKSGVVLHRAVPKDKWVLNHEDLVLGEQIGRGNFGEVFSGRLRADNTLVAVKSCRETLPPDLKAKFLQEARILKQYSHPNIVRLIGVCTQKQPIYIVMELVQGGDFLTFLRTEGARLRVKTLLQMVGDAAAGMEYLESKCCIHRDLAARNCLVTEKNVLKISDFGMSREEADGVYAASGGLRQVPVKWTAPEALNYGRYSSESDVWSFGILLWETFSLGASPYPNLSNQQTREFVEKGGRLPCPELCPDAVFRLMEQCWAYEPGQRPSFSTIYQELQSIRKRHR
Chain of Fyn (P06241 whole entry, looked up): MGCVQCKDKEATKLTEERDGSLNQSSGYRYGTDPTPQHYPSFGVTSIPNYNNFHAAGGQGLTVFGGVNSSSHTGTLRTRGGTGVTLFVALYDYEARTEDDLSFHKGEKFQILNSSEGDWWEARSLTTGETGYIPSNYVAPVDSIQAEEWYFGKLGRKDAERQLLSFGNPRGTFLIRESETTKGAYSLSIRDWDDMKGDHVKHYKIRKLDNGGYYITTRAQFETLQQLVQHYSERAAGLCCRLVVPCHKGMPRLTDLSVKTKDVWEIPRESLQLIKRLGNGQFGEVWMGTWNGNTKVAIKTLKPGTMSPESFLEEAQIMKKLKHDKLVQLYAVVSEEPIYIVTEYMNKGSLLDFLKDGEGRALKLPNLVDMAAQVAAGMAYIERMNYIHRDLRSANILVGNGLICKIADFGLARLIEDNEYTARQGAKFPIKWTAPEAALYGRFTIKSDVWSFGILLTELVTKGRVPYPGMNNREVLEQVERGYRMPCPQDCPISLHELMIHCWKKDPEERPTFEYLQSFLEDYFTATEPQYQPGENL

Sequence	phosphorylation enrichment [1]	phosphorylation enrichment [2]	phosphorylation enrichment [3]	phosphorylation enrichment [4]	phosphorylation enrichment [5]	phosphorylation enrichment [6]	phosphorylation enrichment [7]	phosphorylation enrichment [8]	phosphorylation enrichment [9]	phosphorylation enrichment [10]	phosphorylation enrichment [11]	phosphorylation enrichment [12]	phosphorylation enrichment [13]	SH2 binding enrichment [14]	SH2 binding enrichment [15]	SH2 binding enrichment [16]
SVMVPYEPPEV [TP53_Y220_V217M]	0.515	0.496	1.15	0.481	0.662	0.433	0.465	1.09	0.804	0.52	0.54	1.04	0.56	0.626	0.786	0.608
GKMPQYLESMQ [CYB5R3_Y130_S128P]	0.492	0.466	0.701	0.537	0.554	0.473	0.459	0.73	0.614	0.517	0.412	0.741	0.304	0.932	0.906	0.571
EPSVDYCVVKI [CAD_Y735]	2.83	0.664	1.11	0.577	1.71	0.529	0.618	1.1	0.774	2.25	1.95	1.57	1.26	1.22	1.11	0.684
SMGHRYIEVFK [HNRNPF_Y82]	0.398	0.407	1	0.354	0.483	0.361	0.445	1.05	0.757	0.408	0.38	0.744	0.438	0.988	1.03	2.08
AARVSYWLASG [DCHS1_Y1582_R1583W]	0.613	0.555	1.17	0.573	0.781	0.443	0.364	0.825	0.617	0.622	0.732	1.18	0.634	0.733	1.17	0.527
LQTFRYHGLSM [PDHA1_Y289_H292L_YF]	1.05	0.578	1.21	1.07	1.38	0.747	0.356	0.732	0.589	0.835	0.822	1.26	1.27	0.448	0.886	0.486
RCNHPYLINGA [CHD7_Y1256_C1251R]	0.249	0.506	0.68	0.401	0.569	0.429	0.481	0.646	0.578	0.464	0.518	0.664	0.505	0.693	0.931	0.732
KKLHEYNTQFQ [PIK3R1_Y452]	0.323	0.367	0.541	0.39	0.366	0.348	0.42	0.43	0.477	0.322	0.385	0.55	0.389	0.86	1	0.592
